Earlier results as cited in article PMC10243098.

Target: histone H4 N-terminal 20-mer peptide-CoA bisubstrate inhibitor 1-20 (Homo sapiens) (UniProt P62805)

Chain of HAT1 (O14929 2-419): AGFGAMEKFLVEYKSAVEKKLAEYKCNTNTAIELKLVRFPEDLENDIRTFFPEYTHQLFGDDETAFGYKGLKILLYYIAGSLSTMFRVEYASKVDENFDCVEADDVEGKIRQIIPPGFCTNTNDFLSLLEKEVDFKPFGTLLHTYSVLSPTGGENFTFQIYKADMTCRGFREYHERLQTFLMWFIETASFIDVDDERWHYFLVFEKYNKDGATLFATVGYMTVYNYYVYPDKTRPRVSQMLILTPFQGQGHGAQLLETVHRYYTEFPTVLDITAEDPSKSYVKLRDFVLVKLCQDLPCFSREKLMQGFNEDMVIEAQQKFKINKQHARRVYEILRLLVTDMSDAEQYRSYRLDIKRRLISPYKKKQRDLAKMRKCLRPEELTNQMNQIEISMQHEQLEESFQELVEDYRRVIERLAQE

HAT1 (from UniProt O14929)
Ki: 1 nM
